From patent US20180155451A1 (published 2018)
Read-outs that look alike come from different tables or passages of the source.

T1: FcγRIIb (human, UniProt P31994 43-217)
T1 construct: extracellular domain; also called FcgRIIb; 2b; not shown: His tag at the C terminus
T1 sequence (looked up): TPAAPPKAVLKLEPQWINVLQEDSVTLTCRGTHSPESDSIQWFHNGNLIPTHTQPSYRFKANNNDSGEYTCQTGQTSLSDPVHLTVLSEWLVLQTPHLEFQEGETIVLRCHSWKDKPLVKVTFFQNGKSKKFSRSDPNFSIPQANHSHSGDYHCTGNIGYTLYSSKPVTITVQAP

T2: FcγRIIa H (human, UniProt P12318 34-217)
T2 construct: extracellular domain; Soluble His-tagged extracellular domain expressed in FreeStyle293 cells; also called FcγRIIa type H; FcgRIIa H; not shown: His tag attached to the C terminus
T2 sequence (looked up): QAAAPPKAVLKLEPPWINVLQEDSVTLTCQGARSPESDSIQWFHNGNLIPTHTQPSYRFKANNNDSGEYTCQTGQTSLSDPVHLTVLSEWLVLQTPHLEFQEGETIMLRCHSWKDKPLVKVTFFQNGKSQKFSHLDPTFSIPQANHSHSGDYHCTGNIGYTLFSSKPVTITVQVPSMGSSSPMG

T3: FcγRIIb (human, UniProt P31994 43-217)
T3 construct: extracellular domain; Soluble His-tagged extracellular domain expressed in FreeStyle293 cells; also called FcgRIIb; 2b; not shown: His tag attached to the C terminus
T3 sequence (looked up): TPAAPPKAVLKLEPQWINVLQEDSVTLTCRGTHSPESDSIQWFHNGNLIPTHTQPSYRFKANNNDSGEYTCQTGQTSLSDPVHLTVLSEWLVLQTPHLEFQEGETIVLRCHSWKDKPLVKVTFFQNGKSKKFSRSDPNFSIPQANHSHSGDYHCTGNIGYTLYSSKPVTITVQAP


Legend:
FcγRIa [1] = target: T4, FcγRIa (human, UniProt P12314 16-292); experiment: SPR (Biacore), antibody captured, FcγR as analyte; binding as % of GpH7-A5/GpH7-B3/GpL16-k0
T4 construct: extracellular domain; also called FcgRI; 1a; not shown: His tag at the C terminus

FcγRIIb [2] = target: T1, FcγRIIb; experiment: as above
FcγRIa [3] = target: T4, FcγRIa; experiment: SPR (Biacore); He/Con_1a (FcγRIa) divided by He/Con_2b (FcγRIIb)
FcγRIa [4] = target: T4, FcγRIa; experiment: SPR (Biacore), antibody captured, FcγR as analyte; binding as % of GpH7-A5/GpH7-B3/GpL16-k0; remark: listed apart in the source
FcγRIIb [5] = target: T1, FcγRIIb; experiment: as above; remark: listed apart in the source
FcγRIIa H [6] = target: T2, FcγRIIa H; experiment: SPR (Biacore); He/Con_2aH divided by He/Con_2b (FcγRIIb) of the same antibody
Procedure: (§1) The heterodimerized antibodies He Abs in which one of the H chains was introduced with an alteration were assayed for their binding activities to each activating FcγR and inhibitory FcγR according to the method described in Example 4. […] The activating FcγRs in FIGS. 26, 27, 28, and 29 are FcγRIa, FcγRIIa (R), FcγRIIa (H), and FcγRIIIa, respectively.
(§2) Analysis of interaction between objective antibody and the FcγR was carried out using Biacore T100 (GE Healthcare). HBS-EP+ (GE Healthcare) was used as the running buffer, and the measurement temperature was set to 25° C. Chips produced by immobilizing the antigen peptide by the amine coupling method to a Series S Sencor Chip CM5 (GE Healthcare), or alternatively, chips produced by allowing preliminarily biotinylated antigen peptides to interact with and immobilize onto a Series S Sensor Chip SA (certified) (GE Healthcare) were used. Antibodies of interest were captured onto an antigen peptide-immobilized chip, and allowed to interact to each FcγR diluted with running buffer. To regenerate and repeatedly use the chip, the antibodies captured on the chip were washed off by reacting 10 mM glycine-HCl, pH 1.5.

FcγRIIa H [7] = target: T2, FcγRIIa H; experiment: SPR (Biacore), captured antibody, FcγR analyte; relative to GpH7-A5/GpH7-B3/GpL16-k0 = 100
Procedure: as §1, §2

FcγRIIb [8] = target: T3, FcγRIIb; experiment: as above
Procedure: as §1, §2

T4 sequence (P12314 16-292): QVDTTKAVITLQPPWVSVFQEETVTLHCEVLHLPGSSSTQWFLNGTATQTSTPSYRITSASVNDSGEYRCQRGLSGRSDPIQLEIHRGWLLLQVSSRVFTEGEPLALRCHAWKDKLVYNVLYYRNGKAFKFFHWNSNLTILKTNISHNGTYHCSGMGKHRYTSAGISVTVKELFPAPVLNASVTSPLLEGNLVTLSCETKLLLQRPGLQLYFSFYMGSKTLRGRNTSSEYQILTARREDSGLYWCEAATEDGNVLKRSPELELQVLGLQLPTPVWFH

Binder	He/Con_1a (FcγRIa [1])	He/Con_2b (FcγRIIb [2])	Ia/IIb He_1a/2b (FcγRIa [3])	He/Con_1a (FcγRIa [4])	He/Con_2b (FcγRIIb [5])	He_2aH/2b (FcγRIIa H [6])	He/Con_2aH (FcγRIIa H [7])	He/Con_2b (FcγRIIb [8])
GpH7-A5/GpH7-B3 variant N325_13S/GpL16-k0 (antibody, human IgG1, kappa, heterodimerized IgG1; alteration in the GpH7-B3 H chain only; also called He Ab) heavy 1: not shown heavy 2: not shown light: DIVMTQSPLSLPVTPGEPASISCQASESLVHSNRNTYLHWYLQKPGQSPQLLIYKVSNRFSGVPDRFSGSGSGTDFTLKISRVEAEDVGVYYCSQNTHVPPTFGQGTKVEIERTVAAPSVFIFPPSDEQLKSGTASVVCLLNNFYPREAKVQWKVDNALQSGNSQESVTEQDSKDSTYSLSSTLTLSKADYEKHKVYACEVTHQGLSSPVTKSFNRGEC	96.8 % of control	177 % of control	0.55 ratio	96.8 % of control	177 % of control			
GpH7-A5/GpH7-B3 variant N325_01G/GpL16-k0 (antibody, human IgG1, kappa, Heterodimerized anti-glypican-3 IgG1; mutation in the GpH7-B3 H chain only; also called He Ab) heavy 1: not shown heavy 2: not shown light: DIVMTQSPLSLPVTPGEPASISCQASESLVHSNRNTYLHWYLQKPGQSPQLLIYKVSNRFSGVPDRFSGSGSGTDFTLKISRVEAEDVGVYYCSQNTHVPPTFGQGTKVEIERTVAAPSVFIFPPSDEQLKSGTASVVCLLNNFYPREAKVQWKVDNALQSGNSQESVTEQDSKDSTYSLSSTLTLSKADYEKHKVYACEVTHQGLSSPVTKSFNRGEC						0.56 ratio	56.8 relative (control = 100)	101 relative (control = 100)
GpH7-A5/GpH7-B3 variant K326_14T/GpL16-k0 (antibody, human IgG1, kappa, Heterodimerized anti-glypican-3 IgG1; mutation in the GpH7-B3 H chain only; also called He Ab) heavy 1: not shown heavy 2: not shown light: DIVMTQSPLSLPVTPGEPASISCQASESLVHSNRNTYLHWYLQKPGQSPQLLIYKVSNRFSGVPDRFSGSGSGTDFTLKISRVEAEDVGVYYCSQNTHVPPTFGQGTKVEIERTVAAPSVFIFPPSDEQLKSGTASVVCLLNNFYPREAKVQWKVDNALQSGNSQESVTEQDSKDSTYSLSSTLTLSKADYEKHKVYACEVTHQGLSSPVTKSFNRGEC						0.77 ratio	114 relative (control = 100)	150 relative (control = 100)
GpH7-A5/GpH7-B3 variant K326_06M/GpL16-k0 (antibody, human IgG1, kappa, Heterodimerized anti-glypican-3 IgG1; mutation in the GpH7-B3 H chain only; also called He Ab) heavy 1: not shown heavy 2: not shown light: DIVMTQSPLSLPVTPGEPASISCQASESLVHSNRNTYLHWYLQKPGQSPQLLIYKVSNRFSGVPDRFSGSGSGTDFTLKISRVEAEDVGVYYCSQNTHVPPTFGQGTKVEIERTVAAPSVFIFPPSDEQLKSGTASVVCLLNNFYPREAKVQWKVDNALQSGNSQESVTEQDSKDSTYSLSSTLTLSKADYEKHKVYACEVTHQGLSSPVTKSFNRGEC						0.63 ratio	103 relative (control = 100)	165 relative (control = 100)
GpH7-A5/GpH7-B3 variant K326_07I/GpL16-k0 (antibody, human IgG1, kappa, Heterodimerized anti-glypican-3 IgG1; mutation in the GpH7-B3 H chain only; also called He Ab) heavy 1: not shown heavy 2: not shown light: DIVMTQSPLSLPVTPGEPASISCQASESLVHSNRNTYLHWYLQKPGQSPQLLIYKVSNRFSGVPDRFSGSGSGTDFTLKISRVEAEDVGVYYCSQNTHVPPTFGQGTKVEIERTVAAPSVFIFPPSDEQLKSGTASVVCLLNNFYPREAKVQWKVDNALQSGNSQESVTEQDSKDSTYSLSSTLTLSKADYEKHKVYACEVTHQGLSSPVTKSFNRGEC						0.5 ratio	100 relative (control = 100)	199 relative (control = 100)
GpH7-A5/GpH7-B3 variant S337_15Y/GpL16-k0 (antibody, human IgG1, kappa, Heterodimerized anti-glypican-3 IgG1; mutation in the GpH7-B3 H chain only; also called He Ab) heavy 1: not shown heavy 2: not shown light: DIVMTQSPLSLPVTPGEPASISCQASESLVHSNRNTYLHWYLQKPGQSPQLLIYKVSNRFSGVPDRFSGSGSGTDFTLKISRVEAEDVGVYYCSQNTHVPPTFGQGTKVEIERTVAAPSVFIFPPSDEQLKSGTASVVCLLNNFYPREAKVQWKVDNALQSGNSQESVTEQDSKDSTYSLSSTLTLSKADYEKHKVYACEVTHQGLSSPVTKSFNRGEC							99.4 relative (control = 100)	100 relative (control = 100)
GpH7-A5/GpH7-B3 variant S337_18N/GpL16-k0 (antibody, human IgG1, kappa, Heterodimerized anti-glypican-3 IgG1; mutation in the GpH7-B3 H chain only; also called He Ab) heavy 1: not shown heavy 2: not shown light: DIVMTQSPLSLPVTPGEPASISCQASESLVHSNRNTYLHWYLQKPGQSPQLLIYKVSNRFSGVPDRFSGSGSGTDFTLKISRVEAEDVGVYYCSQNTHVPPTFGQGTKVEIERTVAAPSVFIFPPSDEQLKSGTASVVCLLNNFYPREAKVQWKVDNALQSGNSQESVTEQDSKDSTYSLSSTLTLSKADYEKHKVYACEVTHQGLSSPVTKSFNRGEC							99.8 relative (control = 100)	103 relative (control = 100)
